Measurements as given in PMC12153350, “Evolution of carbapenemase activity in the class C β-lactamase ADC-1” (mBio, 2025).

Assays:
ADC-1 = biological target: T1, ADC-1 (Acinetobacter baumannii, UniProt Q9L4R5); assay: X-ray crystal structure of acyl-enzyme (soak); details: covalent; acyl-enzyme at Ser64; two binding modes, monomers A and B
T1 construct: gene ampC; expressed and purified as in earlier work (gene in pET24a(+)); dimer in asymmetric unit

[1] = tested on: C[C@@H](O)[C@H]1C(=O)N2C(C(=O)O)=C(S[C@@H]3CN[C@H](C(=O)Nc4cccc(C(=O)O)c4)C3)[C@H](C)[C@H]12; assay: purified protein; details: 50 mM sodium phosphate, pH 7.4, 22°C
[2] = tested on: C[C@@H](O)[C@H]1C(=O)N2C(C(=O)O)=C(S[C@@H]3CN[C@H](C(=O)N(C)C)C3)[C@H](C)[C@H]12; assay: purified protein; details: 50 mM sodium phosphate, pH 7.4, 22°C
[3] = tested on: C[C@@H](O)[C@H]1C(=O)N2C(C(=O)O)=C(SCCN=CN)C[C@H]12; assay: purified protein; details: 50 mM sodium phosphate, pH 7.4, 22°C
[4] = tested on: C[C@@H](O)[C@H]1C(=O)N2C(C(=O)O)=C(S[C@@H]3CN[C@H](CNS(N)(=O)=O)C3)[C@H](C)[C@H]12; assay: purified protein; details: 50 mM sodium phosphate, pH 7.4, 22°C
[5] = tested on: CC1(C)S[C@@H]2[C@H](NC(=O)[C@H](N)c3ccccc3)C(=O)N2[C@H]1C(=O)O; assay: purified protein; details: 50 mM sodium phosphate, pH 7.4, 22°C

| Compound | X-ray crystal structure of acyl-enzyme (soak) (ADC-1) | kcat [1] | kcat/Km [1] | Km [2] | kcat [2] | kcat/Km [2] | Km [3] | kcat [3] | kcat/Km [3] | Km [1] | Km [4] | kcat [4] | kcat/Km [4] | kcat [5] | kcat/Km [5] |
| --- | --- | --- | --- | --- | --- | --- | --- | --- | --- | --- | --- | --- | --- | --- | --- |
| C[C@@H](O)[C@H]1C(=O)N2C(C(=O)O)=C(S[C@@H]3CN[C@H](C(=O)Nc4cccc(C(=O)O)c4)C3)[C@H](C)[C@H]12 [ETP, ertapenem] | The crystal structure of the ADC-1–ertapenem acyl–enzyme complex shows a clear dimorphism between the two monomers | – | – | – | – | – | – | – | – | – | – | – | – | – | – |
| ADC-1 (Acinetobacter baumannii) | – | 0.00037 s⁻¹ | ≥ 370 M⁻¹ s⁻¹ | 11 ± 1 µM | 0.0034 s⁻¹ | 310 M⁻¹ s⁻¹ | 1.3 ± 0.2 µM | 0.001 s⁻¹ | 810 M⁻¹ s⁻¹ | – | – | – | – | – | – |
| ADC-68 (Acinetobacter baumannii) | – | 0.011 ± 0.001 s⁻¹ | 3300 ± 700 M⁻¹ s⁻¹ | 50 ± 4 µM | 0.028 ± 0.001 s⁻¹ | 550 ± 40 M⁻¹ s⁻¹ | 1.0 ± 0.2 µM | 0.0036 ± 0.0001 s⁻¹ | 3600 ± 700 M⁻¹ s⁻¹ | 3.5 ± 0.7 µM | 6.0 ± 0.4 µM | 0.0049 ± 0.0001 s⁻¹ | 820 ± 60 M⁻¹ s⁻¹ | 3.2 ± 0.1 s⁻¹ | ≥ 650000 M⁻¹ s⁻¹ |
